B1: secretogranin II (SgII), His-mCherry tag removed (natural protein, mouse, UniProt Q03517 31-617, looked up)
chain: QRNQLLQKEPDLRLENVQKFPSPEMIRALEYIEKLRQQAHREESSPDYNPYQGVSVPLQLKENGEESHLAESSRDALSEDEWMRIILEALRQAENEPPSAPKENKPYALNLEKNFPVDTPDDYETQQWPERKLKHMRFPLMYEENSRENPFKRTNEIVEEQYTPQSLATLESVFQELGKLTGPSNQKRERVDEEQKLYTDDEDDVYKTNNIAYEDVVGGEDWSPIEEKIETQTQEEVRDSKENTEKNEQINEEMKRSGQLGLPDEENRRESKDQLSEDASKVITYLRRLVNAVGSGRSQSGPNGDRAARLLQKPLDSQSIYQLIEISRNLQIPPEDLIEMLKAGEKPNGLVEPEQDLELAVDLDDIPEADLDRPDMFQSKMLSKGGYPKAPGRGMVEALPDGLSVEDILNVLGMENVVNQKSPYFPNQYSQDKALMRLPYGPGKSRANQIPKVAWIPDVESRQAPYENLNDQELGEYLARMLVKYPELLNTNQLKRVPSPVSSEDDLQEEEQLEQAIKEHLGPGSSQEMERLAKVSKRIPVGSLKNEDTPNRQYLDEDMLLKVLEYLNQEQAEQGREHLAKRAMENM
notes: signal peptide in the construct; residues 1-617 (total of 617 amino acids; 1-30 is the signal peptide); Non-tagged proteins were made by cutting off His-mCherry with PreScission protease; The SPR methods say only 'Purified SgII', without the state of the tag; also called CgC; SgII_(1–617); source: HEK293S cells, BacMam baculovirus; purified (Ni-NTA, PreScission protease, Superose 6 Increase); not …

Legend:
[1] = target: B1; assay: SPR; Biacore T200, 25 °C; purified SgII immobilised on a CM5 chip by amine coupling; SgIII injected as analyte, 2 to 1000 nM in twofold dilutions; 25 mM Tris pH 7.5, 150 mM NaCl, 0.05% P20; dissociation constant calculated in affinity mode; conditions: both partners purified
[2] = target: the molecule itself; assay: SEC; Superose 6 Increase 10/300 GL; 25 mM Tris pH 7.5, 500 mM NaCl; self-association

Binder | Kd [1] | binding result [2]
Secretogranin III (SgIII) (natural protein, source: HEK293S cells, BacMam baculovirus; purified) not shown | 21.4 nM | –
B1 | – | binds
mCherry-tagged SgII (SgII-mCherry) (natural protein, mouse, UniProt Q03517 31-617, looked up, signal peptide in the construct; residues 1-617 (total of 617 amino acids; 1-30 is the signal peptide); also called SgII_(1–617) tagged with mCherry; source: HEK293S cells, BacMam baculovirus; purified (Ni-NTA, Superose 6 Increase); not shown: mCherry, C-terminal, kept) QRNQLLQKEPDLRLENVQKFPSPEMIRALEYIEKLRQQAHREESSPDYNPYQGVSVPLQLKENGEESHLAESSRDALSEDEWMRIILEALRQAENEPPSAPKENKPYALNLEKNFPVDTPDDYETQQWPERKLKHMRFPLMYEENSRENPFKRTNEIVEEQYTPQSLATLESVFQELGKLTGPSNQKRERVDEEQKLYTDDEDDVYKTNNIAYEDVVGGEDWSPIEEKIETQTQEEVRDSKENTEKNEQINEEMKRSGQLGLPDEENRRESKDQLSEDASKVITYLRRLVNAVGSGRSQSGPNGDRAARLLQKPLDSQSIYQLIEISRNLQIPPEDLIEMLKAGEKPNGLVEPEQDLELAVDLDDIPEADLDRPDMFQSKMLSKGGYPKAPGRGMVEALPDGLSVEDILNVLGMENVVNQKSPYFPNQYSQDKALMRLPYGPGKSRANQIPKVAWIPDVESRQAPYENLNDQELGEYLARMLVKYPELLNTNQLKRVPSPVSSEDDLQEEEQLEQAIKEHLGPGSSQEMERLAKVSKRIPVGSLKNEDTPNRQYLDEDMLLKVLEYLNQEQAEQGREHLAKRAMENM | – | binds
